For orientation: stoichiometry N means a count of units in the complex or per binding partner.

The assay addresses PKA regulatory subunit RIIα (UniProt P12367). In words: native MS; components mixed at equimolar (1:1) ratio in 200 mM NH4OAc, equilibrated at least 10 min at room temperature; nESI on a Synapt G2-Si, 2-5 uM sample; single proteins sprayed alone too; some C + R samples preincubated with staurosporine, K252a or AT13148 before PKI.

Where “and” joins values, the source holds several entries; their conditions need not be identical. Identical values can stand only once.

With “PKA regulatory subunit RIIα (from UniProt P12367 1-401) (natural protein)”, the stoichiometry N is 3 and 4 and 2.

Values taken from PMC5095912.
